Assay results as given in the supplement of paper PMC9170038.

System: MS2 coat protein
Assay: apparent KD of MS2 coat protein; designed switch direction (-1 OFF switch, 1 ON switch): -1; higher = weaker reporter binding
Summary of the method: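 Normalised cluster fluorescence was curve-fitted, and each design's median over clusters is its apparent KD. Before this, SNAP-549-labelled MS2 coat protein was titrated from 0.7 or 1.5 nM, doubling to 3 µM, over RNA switches transcribed on Illumina chips by stalled E. coli RNA polymerase. Titrations had no input, 200 uM small-molecule ligand, or an oligonucleotide input, and steps lasted 0.8–1.5 h (lowest) to 10–20 min (highest).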

[1] = input ligand: microRNA oligo, concentration not stated
[2] = Eterna round: R95, input ligand: FMN 200 uM
[3] = Eterna round: R95, input ligand: microRNA oligo, concentration not stated
[4] = Eterna round: R95, input ligand: none

Row | Sequence | apparent KD of MS2 coat protein [1] [nM] | apparent KD of MS2 coat protein [2] [nM] | apparent KD of MS2 coat protein [3] [nM] | apparent KD of MS2 coat protein [4] [nM] | apparent KD of MS2 coat protein (input ligand: FMN 200 uM) [nM] | apparent KD of MS2 coat protein (input ligand: none) [nM]
1 | UAUAUAUAGUAAGGAUAUGUAAUUAUUCUAUAAACAGAAGGUACUGACAUGAGGAUCACCCAUGUUUUAGUGUGGGCAUGUAGA [JMF's solution 40] (Eterna round: R96, puzzle: Exclusion NG 1) | 33.8 | – | – | – | – | –
2 | UAAGUUUUGGUAGGAUAUACUUUAAAUUUCUCUAUCCAUACAUGAGGAUCACCCAUGUUUACAUUGUAGAAGGACCUUUAUGUU [JR_ExcNG2_Sub057] (Eterna round: R96, puzzle: Exclusion NG 2) | 30.2 | – | – | – | – | –
3 | UUUAAUUUUUUUUUUUUACAAGCUUUUUGCUCGUCUUAUACAUGAGGAUCACCCAUGUAAAUGGAGGGUAAAUUAUC [JMF 83] (puzzle: Sensor v3, turn-off variant 2) | – | 14.8 | 32 | 11.1 | – | –
4 | UAUUAACAAGUAAGAUCCCACAUGAGGAUCACCCAUGUUCGUCUUAUAGGUACUGUGACACAAAGUGUCACGGUACC [Mod of Eli's R95 Sensor 3, v1 - 87] (Eterna round: R97, puzzle: Sensor, turn-off variant 1) | – | – | – | – | 36.9 | 44.9
5 | AAAGAACAUGAGGAUCACCCAUGUGAGGAUAUCGAGAAAAGAAAGAAGAAGAAGAAAACGAGAAGGCACAAGAA [The design that might work] (puzzle: Exclusion 1) | – | 43.7 | 65 | 56.9 | – | –
6 | GAUUGACAUGAGGAUCACCCAUGUGAGGAUAUCGGCCGGACCUUGUUAGCUUCCACCGCGAGAAGGCACAUAGG [Exclusion 1 V31] (puzzle: Exclusion 1) | – | – | 25.3 | – | – | –
7 | ACUAGCUUUUUGCAUAGUAGGUUUGGUGCUUCGUAUGCAACAUGAGGAUCACCCAUGUAUUACUGAUGUCGUCGUUU [JR_SV3TOV2_Sub092] (puzzle: Sensor v3, turn-off variant 2) | – | 26.2 | 48.2 | 27.8 | – | –
8 | GCAAGCUUUUUCGUGGGUGACAUGAGGAUCACCCAUGUUUGCCACGUCUUGUGGGCCCGGGCCCGCGGCCCGGGCCC [-44.9, -65.2, A 12%] (Eterna round: R97, puzzle: Sensor, turn-off variant 1) | – | – | – | – | 54.6 | 67.6
9 | GACAGGGCAGGAUAUCGAAUUCCUCACAUGAGGAUCACCCAUGUUCAGUCGAAAGACUGACGAGAAGGGCCGUGUC [Omei Ex5 E1] (Eterna round: R97, puzzle: Exclusion 5) | – | – | – | – | 1020 | 2290
10 | AAUUAUUUUUGAGGAUAUCGUGGUGAAACACCACGAGAAGGCGAGAUAAACAUGAGGAUCACCCAUGUGAGCCUGAUGCUUAUG [Ex NG1 #50] (Eterna round: R96, puzzle: Exclusion NG 1) | 18.1 | – | – | – | – | –
11 | UUUUGUUCAGGAUAUGUAGAAUUUAACAUGAGGAUCACCCAUGUAGAUCCUGAAUAAACUACAGAAGGGAACAUUU [Mat - Exclusion 5 - Eli Mod - D15] (Eterna round: R97, puzzle: Exclusion 5) | – | – | – | – | 215 | 27.4
12 | CCAACUCAGGAGGAUAUCUCCGCGAGUUCACGAAGAGAAGGCCUGACAUGAGGAUCACCCAUGUGUCCAUGAGG [Eternabot (Original) Solution 8] (Eterna round: R97, puzzle: Exclusion 6) | – | – | – | – | 106 | 69.6
13 | UAGGUGCAAGGAUAUCGCCCGGAAGACAUGAGGAUCACCCAUGUACCGGGUGAGUAUGGGCGAGAAGGUGCAUAUU [Usergete] (puzzle: Exclusion 5) | – | 298 | 75.9 | 92 | – | –
14 | AGGUGCUUCUGGAGACAUGAGGAUCACCCAUGUUGAGUUAGCGAGGAUAUCGGUAAGGCAUGUGAUGAGAAGGCGCAAACCGAU [Ex NG3 #49] (Eterna round: R96, puzzle: Exclusion NG 3) | 35.5 | – | – | – | 50.6 | 49.5
15 | AAUCCUGAAGUUAGGAUAUGAAGUAUCACUGCACUUCAGAAGGGACUUGAGGAUCACCCAAGUAGCCGUGAGGG [salish99_bmod_ex4_r4_001] (Eterna round: R97, puzzle: Brourd's mod of Exclusion 4) | – | – | – | – | 161 | 47.5
16 | CUCGUGCAGCUUUGCUGUACGAGUACAUGAGGAUCACCCAUGUAGGAUAUGGUACGCUUUGCGUGCUAGAAGGACGUGUGUAUG [JL EXNG3 1.39] (Eterna round: R96, puzzle: Exclusion NG 3) | 29 | – | – | – | 117 | 31.8
17 | GUUUCACAUGAGGAUCACCCAUGUGAGGAUAUGCAUUUGUUAACCGUAGUUAAUAGAUGCAGAAGGCGCGUGAU [JRxlusion 5 - Jieux - Exclusion 1] (Eterna round: R97, puzzle: Exclusion 1) | – | – | – | – | 69.8 | 65

Row | Sequence | apparent KD of MS2 coat protein [1] [nM] | apparent KD of MS2 coat protein [2] [nM] | apparent KD of MS2 coat protein [3] [nM] | apparent KD of MS2 coat protein [4] [nM] | apparent KD of MS2 coat protein (input ligand: FMN 200 uM) [nM] | apparent KD of MS2 coat protein (input ligand: none) [nM]
18 | CCGGGUCACGUAAGGAUAUCACGCGCAGACGCUAGUGAGAAGGUACAUGAGGAUCACCCAUGUUCCAUUCGCAG [BmEX4 C.5] (Eterna round: R97, puzzle: Brourd's mod of Exclusion 4) | – | – | – | – | 17.1 | 13.8
19 | UAUUAGCAAGCGAGAUCCCACAUGAGGAUCACCCAUGUGCUCGUCUUAUAAAAGACUGUGACAAAAGUCACGGUCAC [Sensor 3, v1 - 91 v5] (Eterna round: R97, puzzle: Sensor, turn-off variant 1) | – | – | – | – | 15.9 | 15.1
20 | GCGCUGUGAGGAUAUUAGUAGUAGAUAAAAUAAACUAUUACUGAGAAGGCACAUGAGGAUCACCCAUGUUGCGC [Eli x4 4.04] (Eterna round: R97, puzzle: Exclusion 4) | – | – | – | – | 24.7 | 19.6
21 | UACACUGCAUGAGGAUCAAACAUGAGGAUCACCCAUGUAUAACAAGCUUUUUGCACGUCUUAUAAUUAUGUAGUGUA [Electric Eye 14 - Jieux - Sensor, turn-off variant 1] (Eterna round: R97, puzzle: Sensor, turn-off variant 1) | – | – | – | – | 15.3 | 16.2
22 | GUCAGCUCGUCAGGAUAUACAUGCGUGCUUCGGCACGAAUUUAAGAUCACAUGAGGAUCACCCAUGUAGAAGGGACGAGCUGAC [ENG2/3-B1] (Eterna round: R96, puzzle: Exclusion NG 2) | 515 | – | – | – | 741 | 534
23 | CUGCUCCGUGUAGGAUAUGCGCGCACCCACCGCGCAGAAGGACAUGAGGAUCACCCAUGUAUGUUAUUAUCACGUGAGGCGCGG [Design 36] (Eterna round: R96, puzzle: Exclusion NG 1) | 17.7 | – | – | – | 31.9 | 33.1
24 | AAACACGGAGGAUAUACAGGUUCAGGAAACCGAACCGGCUGACAUGAGGAUCACCCAUGUAGAAGGCCGAAAUA [EX2 A.23] (Eterna round: R97, puzzle: Exclusion 2) | – | – | – | – | 19.5 | 20.9
25 | ACAUGUCAUCGAGGAUAUUGGACACAUGAGGAUCACCCAUGUACUCGGAUGCUCUAGCAUGAGUUCGAGAAGGCGAUGUACAUU [Ex NG2 #79] (Eterna round: R96, puzzle: Exclusion NG 2) | 234 | – | – | – | 1350 | 593
26 | UUCCUCACUUCUUUGUCUCACAUGAGGAUCACCCAUGUAAUAUAGGAUAUGCUUAGUAUUUCUAUGCAGAAGGAUAUUAGUUUU [JR_ExcNG3_Sub086] (Eterna round: R96, puzzle: Exclusion NG 3) | 27.3 | – | – | – | 111 | 32.3
27 | GCCGAUUAAGUGAGGAUAUACCUAUGGAUACAUAGGUAGAAGGUACAUGAGGAUCACCCAUGUUCCUUAACGGC [Fiskers BMX 4 - 8] (puzzle: Brourd's mod of Exclusion 4) | – | – | 10.4 | – | – | –
28 | GAUUGAGAGCAGGAUAUCUUAGAAAUGUAUUAAAGAGAAGGGCUCACAUGAGGAUCACCCAUGUGGUCCUAGAU [JL Dibiri mod 16] (puzzle: Exclusion 6) | – | – | 20.8 | – | – | –
29 | CGAUGCUCGUGUCCACAUGAGGAUCACCCAUGUCGAGUUAGCGAGGAUAUCGGUAACACAUAGUACGAGAAGGCGCGAACCUGA [Ex NG3 #27] (Eterna round: R96, puzzle: Exclusion NG 3) | 14.6 | – | – | – | 52.5 | 17.3
30 | GUACUACGAGGAUAUAUAUAAUGGGAAGCCCAGGCCAUUGCACAUGAGGAUCACCCAUGUAGAAGGCGUGGUCA [Eternabot (L2) Solution 28] (Eterna round: R97, puzzle: Exclusion 2) | – | – | – | – | 40.3 | 16.7
31 | CACUGCAGGUUAGGAUAUGGACAACAACAUGAGGAUCACCCAUGUAUGUAUGAACAUGUUGAUCACCAGAAGGAACACAUCAGU [Exclusion NG 2 S2] (Eterna round: R96, puzzle: Exclusion NG 2) | 9.35 | – | – | – | 12.2 | 11.8
32 | GUUAAUUGUGACAUGGGUGACAUGAGGAUCACCCAUGUCACAAGCUUUUUGCUCGUCUUAUAAUUAACCCAUGUCAC [Stov1/13-A2] (Eterna round: R97, puzzle: Sensor, turn-off variant 1) | – | – | – | – | 29.1 | 41.2
33 | ACGUUUUUUGAGGAUAUGCGAUAUUUUUUUAUCGUAGAAGGCGAUACAUGAGGAUCACCCAUGUUUAUGGGCAU [LRO-Ex6-19] (puzzle: Exclusion 6) | – | – | 143 | – | – | –
34 | AUUCCUCCUGUUAGGAUAUGCAUCGGGCUUCCGCAGCAGAAGGAACAUGAGGAUCACCCAUGUCAAAUAAAAUC (Eterna round: R97, puzzle: Brourd's mod of Exclusion 4) | – | – | – | – | 231 | 30.2
